Results taken from patent US20210054076A1 (Chugai, published 2021).

What was measured:
Experiment in all cases: FACS on Ba/F3 transfectant, antibody 20 micro g/ml, FITC anti-human IgG
human CLDN9 = target: T1, human CLDN9 (human, UniProt O95484 1-217)
T1 construct: whole, on cells; also called hCLDN9; BaF3_hCLDN9
T1 sequence (looked up): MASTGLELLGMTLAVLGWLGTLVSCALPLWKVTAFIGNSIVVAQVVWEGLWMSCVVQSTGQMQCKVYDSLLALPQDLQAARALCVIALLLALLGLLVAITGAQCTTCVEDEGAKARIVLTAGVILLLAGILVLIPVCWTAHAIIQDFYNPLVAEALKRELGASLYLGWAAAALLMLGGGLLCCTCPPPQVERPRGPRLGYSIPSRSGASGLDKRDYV

human CLDN6 = target: T2, human CLDN6 (human, UniProt P56747 1-220)
T2 construct: 45 is entered here, 44 is equally possible; also called hCLDN6; human Claudin 6
T2 sequence: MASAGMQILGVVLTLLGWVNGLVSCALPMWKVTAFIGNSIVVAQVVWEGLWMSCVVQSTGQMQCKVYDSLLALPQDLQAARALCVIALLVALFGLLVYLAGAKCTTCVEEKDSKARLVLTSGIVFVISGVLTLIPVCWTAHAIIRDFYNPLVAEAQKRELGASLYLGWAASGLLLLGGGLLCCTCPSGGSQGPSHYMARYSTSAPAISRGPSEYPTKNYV

mouse CLDN4 = target: T3, mouse CLDN4 (mouse, UniProt O35054 1-210)
T3 construct: whole, on cells; also called mCLDN4; BaF3_mCLDN4
T3 sequence (looked up): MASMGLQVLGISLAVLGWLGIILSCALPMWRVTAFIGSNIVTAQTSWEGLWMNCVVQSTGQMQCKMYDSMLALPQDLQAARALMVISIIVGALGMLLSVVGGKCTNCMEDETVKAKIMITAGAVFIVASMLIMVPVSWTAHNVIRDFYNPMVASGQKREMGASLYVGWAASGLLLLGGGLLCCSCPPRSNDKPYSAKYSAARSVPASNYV

mouse CLDN3 = target: T4, mouse CLDN3 (mouse, UniProt Q9Z0G9 1-219)
T4 construct: whole, on cells; also called mCLDN3; BaF3_mCLDN3
T4 sequence (looked up): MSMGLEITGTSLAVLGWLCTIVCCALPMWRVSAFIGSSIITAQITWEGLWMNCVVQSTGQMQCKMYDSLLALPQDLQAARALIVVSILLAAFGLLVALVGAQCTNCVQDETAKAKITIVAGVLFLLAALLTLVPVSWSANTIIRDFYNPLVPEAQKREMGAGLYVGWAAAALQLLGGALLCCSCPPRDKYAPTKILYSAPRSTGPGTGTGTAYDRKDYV

Geo-mean value of FACS (human CLDN9): 186 | Geo-mean value of FACS (human CLDN6): 3480 | Geo-mean value of FACS (mouse CLDN4): 23 | Geo-mean value of FACS (mouse CLDN3): 27
B1: CH04/CD3 (bispecific antibody, human IgG1, kappa, N297A)
heavy 1: EVQLQQSGPELVKPGASMKISCKASGYSFTGYTMNWVKQSHGKNLEWIGLINPYNGGTIYNQKFKGKATLTVDKSSSTAYMELLSLTSEDSAVYYCARDYGFVLDYWGQGTTLTVSSASTKGPSVFPLAPSSKSTSGGTAALGCLVKDYFPEPVTVSWNSGALTSGVHTFPAVLQSSGLYSLSSVVTVPSSSLGTQTYICNVNHKPSNTKVDKKVEPKSCDKTHTCPPCPAPELRGGPKVFLFPPKPKDTLMISRTPEVTCVVVDVSHEDPEVKFNWYVDGVEVHNAKTKPREEQYASTYRVVSVLTVLHQDWLNGKEYKCKVSNKALPAPIEKTISKAKGQPREPQVYTLPPSREEMTKNQVSLTCLVKGFYPSDIAVEWESNGQPENNYKTTPPYLDSDGSFFLYSKLTVDKSRWQQGNVFSCSVMHEALHNHYTQESLSLSP
light 1: DIVLTQSPSIMSVSPGEKVTITCSASSSVSYMHWFQQKPGTSPKLCIYSTSNLASGVPARFSGRGSGTSYSLTISRVAAEDAATYYCQQRSNYPPWTFGGGTKLEIKRTVAAPSVFIFPPSDEQLKSGTASVVCLLNNFYPREAKVQWKVDNALQSGNSQESVTEQDSKDSTYSLSSTLTLSKADYEKHKVYACEVTHQGLSSPVTKSFNRGEC
heavy 2: QVQLVESGGGVVQPGGSLRLSCAASGFTFSNAWMHWVRQAPGKGLEWVAQIKDKSQNYATYVAESVKGRFTISRADSKNSIYLQMNSLKTEDTAVYYCRYVHYAAGYGVDIWGQGTTVTVSSASTKGPSVFPLAPSSKSTSGGTAALGCLVKDYFPEPVTVSWNSGALTSGVHTFPAVLQSSGLYSLSSVVTVPSSSLGTQTYICNVNHKPSNTKVDKKVEPKSCDKTHTCPPCPAPELRGGPKVFLFPPKPKDTLMISRTPEVTCVVVDVSHEDPEVKFNWYVDGVEVHNAKTKPREEQYASTYRVVSVLTVLHQDWLNGKEYKCKVSNKALPAPIEKTISKAKGQPREPQVYTLPPSRKEMTKNQVSLTCLVKGFYPSDIAVEWESNGQPENNYKTTPPYLDSDGSFFLYSKLTVDKSRWQQGNVFSCSVMHEALHNHYTQKSLSLSP
light 2: DIVMTQSPLSLPVTPGEPASISCRSSQPLVHSNRNTYLHWYQQKPGQAPRLLIYKVSNRFSGVPDRFSGSGSGTDFTLKISRVEAEDVGVYYCGQGTQVPYTFGQGTKLEIKRTVAAPSVFIFPPSDEQLKSGTASVVCLLNNFYPREAKVQWKVDNALQSGNSQESVTEQDSKDSTYSLSSTLTLSKADYEKHKVYACEVTHQGLSSPVTKSFNRGEC
notes: Made by Fab arm exchange of the bivalent anti-CLDN6 antibody CH04 with the bivalent anti-CD3 antibody CD3-1; human IgG1 constant region; One anti-CLDN6 arm and one anti-CD3 arm; also called CLDN6-TRAB; CLDN6-targeted T-cell redirecting bispecific antibody
